4 molecules from article PMC6877725, “Identification of the periplasmic DNA receptor for natural transformation of Helicobacter pylori” can be followed below.

In series [1] the target is T1, ComH-His6 (Helicobacter pylori 26695, UniProt O26055 20-479).
T1 sequence: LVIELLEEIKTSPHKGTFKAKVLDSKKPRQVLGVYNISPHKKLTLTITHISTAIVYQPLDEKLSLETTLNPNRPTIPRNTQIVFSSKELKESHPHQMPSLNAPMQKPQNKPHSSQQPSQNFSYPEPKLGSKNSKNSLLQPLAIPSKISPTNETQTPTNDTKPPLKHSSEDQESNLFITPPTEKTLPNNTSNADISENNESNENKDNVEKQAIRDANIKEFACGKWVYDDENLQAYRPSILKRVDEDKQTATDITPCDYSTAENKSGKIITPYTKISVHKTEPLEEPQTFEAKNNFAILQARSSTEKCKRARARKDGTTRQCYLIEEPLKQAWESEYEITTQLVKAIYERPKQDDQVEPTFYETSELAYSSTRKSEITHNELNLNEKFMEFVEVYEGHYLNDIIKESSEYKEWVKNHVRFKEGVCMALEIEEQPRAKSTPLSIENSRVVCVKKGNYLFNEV
Kind of series: SV-AUC. The note with it: EMSA: 10 mM Tris-HCl pH 7.5, 50 mM KCl, ~100 mM NaCl, 0.1 mM MgCl2, 1 mM DTT, 0.1 µg/µl BSA, on ice 30 min; MST and SV-AUC (20 °C): 50 mM Tris-HCl pH 7.4 …. (In general: Mobility shift assays separate free from complexed probe on a gel.)

For series [2], the target named is T1, ComH-His6. The series is described as follows: SV-AUC. The conditions noted are these: EMSA: 10 mM Tris-HCl pH 7.5, 50 mM KCl, ~100 mM NaCl, 0.1 mM MgCl2, 1 mM DTT, 0.1 µg/µl BSA, on ice 30 min; MST and SV-AUC (20 °C): 50 mM Tris-HCl pH 7.4 …. This is another data set of the same source.
Series [3] has as its target T1, ComH-His6. Kind of series: MST. The conditions noted are these: 10 mM MgCl2, 150 mM NaCl; EMSA: 10 mM Tris-HCl pH 7.5, 50 mM KCl, ~100 mM NaCl, 0.1 mM MgCl2, 1 mM DTT, 0.1 µg/µl BSA, on ice 30 min; MST and SV-AUC (20 °C): 50 mM Tris-HCl pH 7.4 ….
The target of series [4] is T2, ComH-NTD-His6 (Helicobacter pylori 26695, UniProt O26055 20-169).
T2 sequence: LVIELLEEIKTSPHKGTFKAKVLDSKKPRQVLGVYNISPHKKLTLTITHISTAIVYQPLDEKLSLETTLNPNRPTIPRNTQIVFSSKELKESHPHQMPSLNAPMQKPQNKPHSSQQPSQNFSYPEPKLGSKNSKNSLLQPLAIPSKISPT
Kind of series: MST. The conditions noted are these: 10 mM MgCl2, 150 mM NaCl; EMSA: 10 mM Tris-HCl pH 7.5, 50 mM KCl, ~100 mM NaCl, 0.1 mM MgCl2, 1 mM DTT, 0.1 µg/µl BSA, on ice 30 min; MST and SV-AUC (20 °C): 50 mM Tris-HCl pH 7.4 ….

The target in series [5] is T3, ComH-CTD-His6 (Helicobacter pylori 26695, UniProt O26055 170-479).
T3 sequence: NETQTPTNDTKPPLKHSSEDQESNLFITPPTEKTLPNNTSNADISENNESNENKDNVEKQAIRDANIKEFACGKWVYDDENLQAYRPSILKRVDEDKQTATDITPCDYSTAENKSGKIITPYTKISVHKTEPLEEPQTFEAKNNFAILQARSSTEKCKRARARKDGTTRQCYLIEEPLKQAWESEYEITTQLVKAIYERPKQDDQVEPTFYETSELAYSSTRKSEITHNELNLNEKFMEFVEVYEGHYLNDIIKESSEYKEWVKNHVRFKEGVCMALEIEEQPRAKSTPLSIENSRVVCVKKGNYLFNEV
Kind of series: MST. The conditions noted are these: 10 mM MgCl2, 150 mM NaCl; EMSA: 10 mM Tris-HCl pH 7.5, 50 mM KCl, ~100 mM NaCl, 0.1 mM MgCl2, 1 mM DTT, 0.1 µg/µl BSA, on ice 30 min; MST and SV-AUC (20 °C): 50 mM Tris-HCl pH 7.4 ….

Series [6] deals with T3, ComH-CTD-His6. Kind of series: EMSA; essentially no affinity, 0.5-2 µM protein; EMSA: 10 mM Tris-HCl pH 7.5, 50 mM KCl, ~100 mM NaCl, 0.1 mM MgCl2, 1 mM DTT, 0.1 µg/µl BSA, on ice 30 min; MST and SV-AUC (20 °C): 50 mM Tris-HCl pH 7.4, 150 mM NaCl, 10 mM MgCl2, 0.05% Tween20; SPR: PBS + 0.005% Tween20, 25 °C. The note with it: protein: recombinant; tags: C-terminal His6; label: 5'-Cy5.

In series [7] the target is T2, ComH-NTD-His6. Kind of series: EMSA; basically no binding, 0.5-2 µM protein; EMSA: 10 mM Tris-HCl pH 7.5, 50 mM KCl, ~100 mM NaCl, 0.1 mM MgCl2, 1 mM DTT, 0.1 µg/µl BSA, on ice 30 min; MST and SV-AUC (20 °C): 50 mM Tris-HCl pH 7.4, 150 mM NaCl, 10 mM MgCl2, 0.05% Tween20; SPR: PBS + 0.005% Tween20, 25 °C. The note with it: protein: recombinant, tags: C-terminal His6.

Series [8] has as its target T1, ComH-His6. The series is described as follows: EMSA; 0.5-2 µM protein; EMSA: 10 mM Tris-HCl pH 7.5, 50 mM KCl, ~100 mM NaCl, 0.1 mM MgCl2, 1 mM DTT, 0.1 µg/µl BSA, on ice 30 min; MST and SV-AUC (20 °C): 50 mM Tris-HCl pH 7.4, 150 mM NaCl, 10 mM MgCl2, 0.05% Tween20; SPR: PBS + 0.005% Tween20, 25 °C. The note with it: protein: recombinant, tags: C-terminal His6.
The target of series [9] is T1, ComH-His6. The series is described as follows: SPR; no satisfactory fit; EMSA: 10 mM Tris-HCl pH 7.5, 50 mM KCl, ~100 mM NaCl, 0.1 mM MgCl2, 1 mM DTT, 0.1 µg/µl BSA, on ice 30 min; MST and SV-AUC (20 °C): 50 mM Tris-HCl pH 7.4, 150 mM NaCl, 10 mM MgCl2, 0.05% Tween20; SPR: PBS + 0.005% Tween20, 25 °C. The note with it: protein: recombinant; tags: C-terminal His6; label: 5'-biotin on strand 1; blunt. On the technique in general: In SPR one partner is held on a chip, and binding of the other changes the refractive index at the surface.

Series [10] addresses T3, ComH-CTD-His6. The series is described as follows: EMSA; 0.5-2 µM protein; EMSA: 10 mM Tris-HCl pH 7.5, 50 mM KCl, ~100 mM NaCl, 0.1 mM MgCl2, 1 mM DTT, 0.1 µg/µl BSA, on ice 30 min; MST and SV-AUC (20 °C): 50 mM Tris-HCl pH 7.4, 150 mM NaCl, 10 mM MgCl2, 0.05% Tween20; SPR: PBS + 0.005% Tween20, 25 °C. The conditions noted are these: protein: recombinant; tags: C-terminal His6; label: 5'-Cy5 on strand 1; blunt.

Where [11] appears, read: label: 5'-Cy5 on strand 1, blunt.

In general, Kd refers to the concentration at which binding is half-saturated. As to 18 bp dsDNA-FAM, the Kd with ComH-His6 [1] was 300 nM; with ComH-His6 [2], 100 nM; with ComH-His6 [3], 50 nM; in the series with ComH-NTD-His6 [4], > 40000 nM; in the series with ComH-CTD-His6 [5], 3400 nM.

Take TAGCATCGATCAGTCCTC (ssDNA) [18-mer ssDNA (Cy5-PNK1)]: the binding result with ComH-CTD-His6 [6], in the series with ComH-NTD-His6 [7] (label: 5'-Cy5) and with ComH-His6 [8] (label: 5'-Cy5) was “no binding” throughout.

B1: 50 bp dsDNA (Op249 + Op250) (dsDNA)
DNA 1: GTAGTGCTGTAGGAGAATATACGGGCTGCTCGTGTTGACAAGTACTGATG
DNA 2: CATCAGTACTTGTCAACACGAGCAGCCCGTATATTCTCCTACAGCACTAC
In the case of B1, the binding result with ComH-His6 [9] is listed as “binds”.

B2: 18 bp dsDNA (Cy5-PNK1 + cPNK1) (dsDNA)
DNA 1: TAGCATCGATCAGTCCTC
DNA 2: GAGGACTGATCGATGCTA
In the case of B2, the binding result is “no binding” in the series with ComH-NTD-His6 [7] (setting [11]), “binds” with ComH-His6 [8] (setting [11]) and “binds” with ComH-CTD-His6 [10].
